Test results as given in the Human Domainome abundance scans (Beltran et al. 2025).
± gives the uncertainty stated by the source.

B1: GA-binding protein alpha chain, residues 172 to 250; numbered along this chain, Q06546 (parent)
chain: GYRKEQERLGIPYDPIQWSTDQVLHWVVWVMKEFSMTDIDLTTLNISGRELCSLNQEDFFQRVPRGEILWSHLELLRKY
B2: POU domain, class 3, transcription factor 2, residues 356 to 411; numbered along this chain, P20265 (parent)
chain: KKRTSIEVSVKGALESHFLKCPKPSAQEITSLADSLQLEKEVVRVWFCNRRQKEKR

Variants of: B1
Test: abundance fitness (aPCA) (normalised: wild type 0, dead -1); higher = more abundant; growth selection in yeast, the domain comes from the species named
Conditions: Homo sapiens

Variant | abundance fitness
GYNKEQERLGIPYDPIQWSTDQVLHWVVWVMKEFSMTDIDLTTLNISGRELCSLNQEDFFQRVPRGEILWSHLELLRKY | -0.373 ± 0.31
GYDKEQERLGIPYDPIQWSTDQVLHWVVWVMKEFSMTDIDLTTLNISGRELCSLNQEDFFQRVPRGEILWSHLELLRKY | -0.499 ± 0.26
GYQKEQERLGIPYDPIQWSTDQVLHWVVWVMKEFSMTDIDLTTLNISGRELCSLNQEDFFQRVPRGEILWSHLELLRKY | -0.05 ± 0.048
GYYKEQERLGIPYDPIQWSTDQVLHWVVWVMKEFSMTDIDLTTLNISGRELCSLNQEDFFQRVPRGEILWSHLELLRKY | -0.19 ± 0.077
GYLKEQERLGIPYDPIQWSTDQVLHWVVWVMKEFSMTDIDLTTLNISGRELCSLNQEDFFQRVPRGEILWSHLELLRKY | -0.182 ± 0.041
GYAKEQERLGIPYDPIQWSTDQVLHWVVWVMKEFSMTDIDLTTLNISGRELCSLNQEDFFQRVPRGEILWSHLELLRKY | -0.268 ± 0.045
GYHKEQERLGIPYDPIQWSTDQVLHWVVWVMKEFSMTDIDLTTLNISGRELCSLNQEDFFQRVPRGEILWSHLELLRKY | -0.098 ± 0.08
GYVKEQERLGIPYDPIQWSTDQVLHWVVWVMKEFSMTDIDLTTLNISGRELCSLNQEDFFQRVPRGEILWSHLELLRKY | -0.262 ± 0.044
GYGKEQERLGIPYDPIQWSTDQVLHWVVWVMKEFSMTDIDLTTLNISGRELCSLNQEDFFQRVPRGEILWSHLELLRKY | -0.176 ± 0.031
GYSKEQERLGIPYDPIQWSTDQVLHWVVWVMKEFSMTDIDLTTLNISGRELCSLNQEDFFQRVPRGEILWSHLELLRKY | -0.214 ± 0.038
GYMKEQERLGIPYDPIQWSTDQVLHWVVWVMKEFSMTDIDLTTLNISGRELCSLNQEDFFQRVPRGEILWSHLELLRKY | -0.158 ± 0.062
GYFKEQERLGIPYDPIQWSTDQVLHWVVWVMKEFSMTDIDLTTLNISGRELCSLNQEDFFQRVPRGEILWSHLELLRKY | -0.058 ± 0.096
GYPKEQERLGIPYDPIQWSTDQVLHWVVWVMKEFSMTDIDLTTLNISGRELCSLNQEDFFQRVPRGEILWSHLELLRKY | -0.517 ± 0.068
GYWKEQERLGIPYDPIQWSTDQVLHWVVWVMKEFSMTDIDLTTLNISGRELCSLNQEDFFQRVPRGEILWSHLELLRKY | -0.081 ± 0.047
GYKKEQERLGIPYDPIQWSTDQVLHWVVWVMKEFSMTDIDLTTLNISGRELCSLNQEDFFQRVPRGEILWSHLELLRKY | -0.083 ± 0.071
GYEKEQERLGIPYDPIQWSTDQVLHWVVWVMKEFSMTDIDLTTLNISGRELCSLNQEDFFQRVPRGEILWSHLELLRKY | -0.004 ± 0.075
GYCKEQERLGIPYDPIQWSTDQVLHWVVWVMKEFSMTDIDLTTLNISGRELCSLNQEDFFQRVPRGEILWSHLELLRKY | -0.206 ± 0.055
SYRKEQERLGIPYDPIQWSTDQVLHWVVWVMKEFSMTDIDLTTLNISGRELCSLNQEDFFQRVPRGEILWSHLELLRKY | -0.135 ± 0.14
MYRKEQERLGIPYDPIQWSTDQVLHWVVWVMKEFSMTDIDLTTLNISGRELCSLNQEDFFQRVPRGEILWSHLELLRKY | 0.045 ± 0.28
EYRKEQERLGIPYDPIQWSTDQVLHWVVWVMKEFSMTDIDLTTLNISGRELCSLNQEDFFQRVPRGEILWSHLELLRKY | -0.164 ± 0.057
LYRKEQERLGIPYDPIQWSTDQVLHWVVWVMKEFSMTDIDLTTLNISGRELCSLNQEDFFQRVPRGEILWSHLELLRKY | -0.634 ± 0.28
QYRKEQERLGIPYDPIQWSTDQVLHWVVWVMKEFSMTDIDLTTLNISGRELCSLNQEDFFQRVPRGEILWSHLELLRKY | -0.047 ± 0.2
RYRKEQERLGIPYDPIQWSTDQVLHWVVWVMKEFSMTDIDLTTLNISGRELCSLNQEDFFQRVPRGEILWSHLELLRKY | 0.091 ± 0.13

Variant | abundance fitness
TYRKEQERLGIPYDPIQWSTDQVLHWVVWVMKEFSMTDIDLTTLNISGRELCSLNQEDFFQRVPRGEILWSHLELLRKY | -0.156 ± 0.26
AYRKEQERLGIPYDPIQWSTDQVLHWVVWVMKEFSMTDIDLTTLNISGRELCSLNQEDFFQRVPRGEILWSHLELLRKY | -0.1 ± 0.061
GYRKFQERLGIPYDPIQWSTDQVLHWVVWVMKEFSMTDIDLTTLNISGRELCSLNQEDFFQRVPRGEILWSHLELLRKY | -0.419 ± 0.088
GYRKKQERLGIPYDPIQWSTDQVLHWVVWVMKEFSMTDIDLTTLNISGRELCSLNQEDFFQRVPRGEILWSHLELLRKY | -0.806 ± 0.22
GYRKLQERLGIPYDPIQWSTDQVLHWVVWVMKEFSMTDIDLTTLNISGRELCSLNQEDFFQRVPRGEILWSHLELLRKY | -0.45 ± 0.05
GYRKIQERLGIPYDPIQWSTDQVLHWVVWVMKEFSMTDIDLTTLNISGRELCSLNQEDFFQRVPRGEILWSHLELLRKY | 0.004 ± 0.064
GYRKVQERLGIPYDPIQWSTDQVLHWVVWVMKEFSMTDIDLTTLNISGRELCSLNQEDFFQRVPRGEILWSHLELLRKY | -0.093 ± 0.042
GYRKRQERLGIPYDPIQWSTDQVLHWVVWVMKEFSMTDIDLTTLNISGRELCSLNQEDFFQRVPRGEILWSHLELLRKY | -0.913 ± 0.078
GYRKCQERLGIPYDPIQWSTDQVLHWVVWVMKEFSMTDIDLTTLNISGRELCSLNQEDFFQRVPRGEILWSHLELLRKY | -0.288 ± 0.07
GYRKSQERLGIPYDPIQWSTDQVLHWVVWVMKEFSMTDIDLTTLNISGRELCSLNQEDFFQRVPRGEILWSHLELLRKY | -0.742 ± 0.057
GYRKNQERLGIPYDPIQWSTDQVLHWVVWVMKEFSMTDIDLTTLNISGRELCSLNQEDFFQRVPRGEILWSHLELLRKY | -0.897 ± 0.24
GYRKPQERLGIPYDPIQWSTDQVLHWVVWVMKEFSMTDIDLTTLNISGRELCSLNQEDFFQRVPRGEILWSHLELLRKY | -0.958 ± 0.19
GYRKAQERLGIPYDPIQWSTDQVLHWVVWVMKEFSMTDIDLTTLNISGRELCSLNQEDFFQRVPRGEILWSHLELLRKY | -0.608 ± 0.058
GYRKYQERLGIPYDPIQWSTDQVLHWVVWVMKEFSMTDIDLTTLNISGRELCSLNQEDFFQRVPRGEILWSHLELLRKY | -0.149 ± 0.096
GYRKMQERLGIPYDPIQWSTDQVLHWVVWVMKEFSMTDIDLTTLNISGRELCSLNQEDFFQRVPRGEILWSHLELLRKY | -0.281 ± 0.077
GYRKQQERLGIPYDPIQWSTDQVLHWVVWVMKEFSMTDIDLTTLNISGRELCSLNQEDFFQRVPRGEILWSHLELLRKY | -0.485 ± 0.074
GYRKTQERLGIPYDPIQWSTDQVLHWVVWVMKEFSMTDIDLTTLNISGRELCSLNQEDFFQRVPRGEILWSHLELLRKY | -0.347 ± 0.093
GYRKHQERLGIPYDPIQWSTDQVLHWVVWVMKEFSMTDIDLTTLNISGRELCSLNQEDFFQRVPRGEILWSHLELLRKY | -0.354 ± 0.13
GYRKDQERLGIPYDPIQWSTDQVLHWVVWVMKEFSMTDIDLTTLNISGRELCSLNQEDFFQRVPRGEILWSHLELLRKY | -0.371 ± 0.074
GYRKWQERLGIPYDPIQWSTDQVLHWVVWVMKEFSMTDIDLTTLNISGRELCSLNQEDFFQRVPRGEILWSHLELLRKY | -0.442 ± 0.094
GYRNEQERLGIPYDPIQWSTDQVLHWVVWVMKEFSMTDIDLTTLNISGRELCSLNQEDFFQRVPRGEILWSHLELLRKY | -0.032 ± 0.2
GYRTEQERLGIPYDPIQWSTDQVLHWVVWVMKEFSMTDIDLTTLNISGRELCSLNQEDFFQRVPRGEILWSHLELLRKY | -0.067 ± 0.1
GYRFEQERLGIPYDPIQWSTDQVLHWVVWVMKEFSMTDIDLTTLNISGRELCSLNQEDFFQRVPRGEILWSHLELLRKY | -0.131 ± 0.071

Variant | abundance fitness
GYRIEQERLGIPYDPIQWSTDQVLHWVVWVMKEFSMTDIDLTTLNISGRELCSLNQEDFFQRVPRGEILWSHLELLRKY | 0.054 ± 0.062
GYRDEQERLGIPYDPIQWSTDQVLHWVVWVMKEFSMTDIDLTTLNISGRELCSLNQEDFFQRVPRGEILWSHLELLRKY | -0.104 ± 0.063
GYRPEQERLGIPYDPIQWSTDQVLHWVVWVMKEFSMTDIDLTTLNISGRELCSLNQEDFFQRVPRGEILWSHLELLRKY | -0.326 ± 0.067
GYRWEQERLGIPYDPIQWSTDQVLHWVVWVMKEFSMTDIDLTTLNISGRELCSLNQEDFFQRVPRGEILWSHLELLRKY | -0.12 ± 0.041
GYRAEQERLGIPYDPIQWSTDQVLHWVVWVMKEFSMTDIDLTTLNISGRELCSLNQEDFFQRVPRGEILWSHLELLRKY | -0.063 ± 0.044
GYRYEQERLGIPYDPIQWSTDQVLHWVVWVMKEFSMTDIDLTTLNISGRELCSLNQEDFFQRVPRGEILWSHLELLRKY | -0.1 ± 0.073
GYRREQERLGIPYDPIQWSTDQVLHWVVWVMKEFSMTDIDLTTLNISGRELCSLNQEDFFQRVPRGEILWSHLELLRKY | -0.029 ± 0.03
GYREEQERLGIPYDPIQWSTDQVLHWVVWVMKEFSMTDIDLTTLNISGRELCSLNQEDFFQRVPRGEILWSHLELLRKY | -0.072 ± 0.071
GYRVEQERLGIPYDPIQWSTDQVLHWVVWVMKEFSMTDIDLTTLNISGRELCSLNQEDFFQRVPRGEILWSHLELLRKY | -0.045 ± 0.038
GYRSEQERLGIPYDPIQWSTDQVLHWVVWVMKEFSMTDIDLTTLNISGRELCSLNQEDFFQRVPRGEILWSHLELLRKY | -0.026 ± 0.035
GYRQEQERLGIPYDPIQWSTDQVLHWVVWVMKEFSMTDIDLTTLNISGRELCSLNQEDFFQRVPRGEILWSHLELLRKY | -0.106 ± 0.084
GYRHEQERLGIPYDPIQWSTDQVLHWVVWVMKEFSMTDIDLTTLNISGRELCSLNQEDFFQRVPRGEILWSHLELLRKY | -0.003 ± 0.11
GYRCEQERLGIPYDPIQWSTDQVLHWVVWVMKEFSMTDIDLTTLNISGRELCSLNQEDFFQRVPRGEILWSHLELLRKY | -0.27 ± 0.055
GYRKEIERLGIPYDPIQWSTDQVLHWVVWVMKEFSMTDIDLTTLNISGRELCSLNQEDFFQRVPRGEILWSHLELLRKY | 0.078 ± 0.091
GYRKEEERLGIPYDPIQWSTDQVLHWVVWVMKEFSMTDIDLTTLNISGRELCSLNQEDFFQRVPRGEILWSHLELLRKY | -0.26 ± 0.053
GYRKEFERLGIPYDPIQWSTDQVLHWVVWVMKEFSMTDIDLTTLNISGRELCSLNQEDFFQRVPRGEILWSHLELLRKY | -0.184 ± 0.069
GYRKEKERLGIPYDPIQWSTDQVLHWVVWVMKEFSMTDIDLTTLNISGRELCSLNQEDFFQRVPRGEILWSHLELLRKY | -0.96 ± 0.13
GYRKEDERLGIPYDPIQWSTDQVLHWVVWVMKEFSMTDIDLTTLNISGRELCSLNQEDFFQRVPRGEILWSHLELLRKY | -0.678 ± 0.31
GYRKECERLGIPYDPIQWSTDQVLHWVVWVMKEFSMTDIDLTTLNISGRELCSLNQEDFFQRVPRGEILWSHLELLRKY | -0.118 ± 0.067
GYRKEHERLGIPYDPIQWSTDQVLHWVVWVMKEFSMTDIDLTTLNISGRELCSLNQEDFFQRVPRGEILWSHLELLRKY | -0.852 ± 0.11
GYRKEAERLGIPYDPIQWSTDQVLHWVVWVMKEFSMTDIDLTTLNISGRELCSLNQEDFFQRVPRGEILWSHLELLRKY | -0.076 ± 0.041

Variants of: B2
Test: as above
Conditions: Homo sapiens

Variant | abundance fitness
KKRTSIEVSVKGALESHFLKCPKPSAQEITSLADSLQLEKEVVRVWFCNRRQKEKW | -0.234 ± 0.14
KKRTSIEVSVKGALESHFLKCPKPSAQEITSLADSLQLEKEVVRVWFCNRRQKEKT | 0.063 ± 0.26
KKRTSIEVSVKGALESHFLKCPKPSAQEITSLADSLQLEKEVVRVWFCNRRQKEKY | -0.413 ± 0.27
KKRTSIEVSVKGALESHFLKCPKPSAQEITSLADSLQLEKEVVRVWFCNRRQKEKV | -0.033 ± 0.13
